# Test results published in publication PMC3702631 (Structure (London, England : 1993), 2013).
# Biological target: the molecule itself
# Test: SEC
row,Protein,stoichiometry N
1,"mouse TBK1 residues 1-657, K38A (GST tag cleaved) (domain or fragment, UniProt Q9WUN2 1-657, looked up) MQSTSNHLWLLSDILGQGATANVFRGRHKKTGDLYAVAVFNNISFLRPVDVQMREFEVLKKLNHKNIVKLFAIEEETTTRHKVLIMEFCPCGSLYTVLEEPSNAYGLPESEFLIVLRDVVGGMNHLRENGIVHRDIKPGNIMRVIGEDGQSVYKLTDFGAARELEDDEQFVSLYGTEEYLHPDMYERAVLRKDHQKKYGATVDLWSVGVTFYHAATGSLPFRPFEGPRRNKEVMYKIITGKPSGAISGVQKAENGPIDWSGDMPLSCSLSQGLQALLTPVLANILEADQEKCWGFDQFFAETSDVLHRMVIHVFSLQHMTAHKIYIHSYNTAAVFHELVYKQTKIVSSNQELIYEGRRLVLELGRLAQHFPKTTEENPIFVTSREQLNTVGLRYEKISLPKIHPRYDLDGDASMAKAVTGVVCYACRTASTLLLYQELMRKGVRWLVELVKDDYNETVHKKTEVVITLDFCIRNIEKTVKVYEKLMKVNLEAAELGEISDIHTKLLRLSSSQGTIESSLQDISSRLSPGGLLADTWAHQEGTHPRDRNVEKLQVLLNCITEIYYQFKKDKAERRLAYNEEQIHKFDKQKLYYHATKAMSHFSEECVRKYEAFKDKSEEWMRKMLHLRKQLLSLTNQCFDIEEEVSKYQDYTNELQET",2
2,"mouse TBK1 residues 1-657, S172A (GST tag cleaved) (domain or fragment, UniProt Q9WUN2 1-657, looked up) MQSTSNHLWLLSDILGQGATANVFRGRHKKTGDLYAVKVFNNISFLRPVDVQMREFEVLKKLNHKNIVKLFAIEEETTTRHKVLIMEFCPCGSLYTVLEEPSNAYGLPESEFLIVLRDVVGGMNHLRENGIVHRDIKPGNIMRVIGEDGQSVYKLTDFGAARELEDDEQFVALYGTEEYLHPDMYERAVLRKDHQKKYGATVDLWSVGVTFYHAATGSLPFRPFEGPRRNKEVMYKIITGKPSGAISGVQKAENGPIDWSGDMPLSCSLSQGLQALLTPVLANILEADQEKCWGFDQFFAETSDVLHRMVIHVFSLQHMTAHKIYIHSYNTAAVFHELVYKQTKIVSSNQELIYEGRRLVLELGRLAQHFPKTTEENPIFVTSREQLNTVGLRYEKISLPKIHPRYDLDGDASMAKAVTGVVCYACRTASTLLLYQELMRKGVRWLVELVKDDYNETVHKKTEVVITLDFCIRNIEKTVKVYEKLMKVNLEAAELGEISDIHTKLLRLSSSQGTIESSLQDISSRLSPGGLLADTWAHQEGTHPRDRNVEKLQVLLNCITEIYYQFKKDKAERRLAYNEEQIHKFDKQKLYYHATKAMSHFSEECVRKYEAFKDKSEEWMRKMLHLRKQLLSLTNQCFDIEEEVSKYQDYTNELQET",2
